Measured values taken from the DeepSol protein solubility set.

Assay: soluble on expression in E. coli; label from the status in PepcDB or PDB records

| Sequence | soluble on expression in E. coli |
| --- | --- |
| GPGSMPPTHLLPTIDVSLRDKLSRFVESRGLLQMALEIATDDERRFDLAVQLKQLLLAHEIASAANVASHWKQVGDIALEQGYFEMAIESLEKCNDWSGLLLIYTSLNDMEAISRLGDRCLQRGQANLAFTCYHLTQRHAECVELLQKTGKTGDAAFYARTYYPSLIEDAVAKWRVSVASIPRVSQALASPAAYPNLFPSLRNVDLLPPKGSEADAPLNAQPPPPGASASLHGSCTAPTVADWFQPAAAAPQQLMHPPPLPDNVDSEPSGMQELADEEETWGED | soluble |
| AEMEVQIVRNDPPLRYDTNLPVDLLHMVYAGRGATGSSGVVFGTWYRTIQDRTITDFPLTTRSADFRDGRMSKTFMTALVLSLQACGRLYVGQRHYSAFECAVLCLYLLYRNTHGAADDSDRAPVTFGDLLGRLPRYLACLAAVIGTEGGRPQYRYRDDKLPKTQFAAGGGRYEHGALASHIVIATLMHHGVLPAAPGDVPRDASTHVNPDGVAHHDDINRAAAAFLSRGHNLFLWEDQTLLRATANTITALGVIQRLLANGNVYADRLNNRLQLGMLIPGAVPSEAIARGASGSDSGAIKSGDNNLEALCANYVLPLYRADPAVELTQLFPGLAALCLDAQAGRPVGSTRRVVDMSSGARQAALVRLTALELINRTRTNPTPVGEVIHAHDALAIQYEQGLGLLAQQARIGLGSNTKRFSAFNVSSDYDMLYFLCLGFIPQYLSAV | soluble |
| MSLEAKVDKPRLNQEQAIAIAAVNSQQGFGCFLLEGVTGSGKTEVYLNLITPVLARGEQALVLVPEIGLTPQTINRFRQRFNVPVEVMHSALNDTERLNAWLAARDKVAGIVIGTRSALLTPFAKLGIIIVDEEHDSSYKQQDSLRYHARDVAVMRAHLENIPIVLGSATPALETLHNALSGKYHHLQLTQRAGNALPTRNHALDVKGLYLESGLSAPLIAEMRRHLSAGNQVMLFLNRRGFSPALMCHECGWIAECQRCDAYYTYHQHSNEMRCHHCGSQRPVLHQCKGCGSTQLVTVGVGTEQLEAQLHTLFPEYRSVRIDRDSTRRKGSLESALTAIRKGEYQILIGTQMLAKGHHFPDVTLVALLDVDGSLYSSDFRASERLAQLFIQVAGRAGRASKPGEVVLQTHHPEHSLLQALLHKDYHHFALTALEERKLAQLPPYSFLSLFRAEANHTAQVEDFLRQVRETLRCNPWFDSECMVLGPTPAPLAKRAGKFRWQLLLQTPNRTLMQKILQSARPALQQLPLASKVRWSIDIDPQDLSEGHHHHHH | not soluble |
| MEQLSIQTDELQDQFSNCSPASVDSSYSSCSSVEDEIEIYTRLVRNEEPLRRDFFREMSKNSSCSSSFDYGEFGPSSSSRKGSKTTDADLDSLFHSLVETSDQVNTVPKPTKTEVESIPEEFEQKPSSSSHRLPSEMNASITHIKSELDPTMQAFQMPHNDLFLATAAPHYNPFALSNDFMPNPLMPSFTSPFYPQHFPVSDSRRGSQGTTSSSNNTGGTPSPHSSSLPTSPPQLQGFLRSFLNPDNLSTPTSFGVPSETALDADKMCAVCNDRAVCLHYGARTCEGCKGFFKRTVQKNSKYTCAGNKTCPIDKRYRSRCQYCRYQKCLEVGMVKEIVRHGSLSGRRGRLSSKTKLARSEDQPSPPLPLLALMGKAIEDHTNMTVVRQFMQPFDETIALRILHGELHATKKLLMAMPQISEIQPADFQILLSRSFFAIMAIRVANRCGNSTDTIMFESGELFSLNAFPACFQQIIRFMVDKARTFSSLVDWEPQAFAAFIALQFLAGNTEHNVLGLTNKPLVDQVQSTIINALKDHCSGSQNKLAKIVRLTQEFDVFHALGLQALDILYPSHQLPEEFMFLINLTRAPLRSTDAPPACGSPVAPSGSSLFNFQMGPAAF | not soluble |
| QVQLQQPGAELVKPGASVKLSCKASGYTFTSDWIHWVKQRPGHGLEWIGEIIPSYGRANYNEKIQKKATLTADKSSSTAFMQLSSLTSEDSAVYYCARERGDGYFAVWGAGTTVTVSSAKTTPPSVYPLAPGSAAQTNSMVTLGCLVKGYFPEPVTVTWNSGSLSSGVHTFPAVLQSDLYTLSSSVTVPSSSWPSETVTCNVAHPASSTKVDKKIVPRD | soluble |
| MKVVAFNGSPRRDGNTSILIDKVLNELKKEGITTEHIHIAGGKLRGCTACYKCFETLNNKCIIECDIINNCIEKMIEADGIILGSPTYFTDVTAEMKALIDRAGFVAKANDDILKRKVGAAVVSVRRAGGVHVFDTLNHFFSINQMISVGSDYWNLGMGLDIGDVQKDAEGLHTMELLGQNMAWILKKINELEHHHHHH | not soluble |
| MLPSHRSPDSATHDRIRKMTMNAMPQTAAQNETLHTCSIIVDDAQDFSPMLLDAGRDDTLISESMIPQIRTVAALIAAERHDFSRSSPAEFTDAADFFAARILVLGVRRFHLDVSLLQILKTANSRARRFAEKHRLFFTPAQAELSLNKHKNRRLLTVETEHEVENKGNPVANSLAFVRKLHTLPL | not soluble |
| MLLTNHAKERIAKRLAKKRKIYKIYSTLFSFLKNSIRIEVEDTILFTDGNKTLVATKLDGELLDLGDIVKRVKDIEESYECVFWDKKIAKITKPIKFLQEIPPGKYYFYINKEKKVLYIGTHEPLLALTFRPAKRWERALFYFSLEHHHHHH | not soluble |
| MHHQSVLHSGYFHPLLRSWQTAASTVSASNLIYPIFVTDVPDDVQPIASLPGVARYGVNQLEEMLRPLVEAGLRCVLIFGVPSRVPKDEQGSAADSEDSPTIEAVRLLRKTFPSLLVACDVCLCPYTSHGHCGLLSENGAFLSEESRQRLAEVALAYAKAGCQVVAPSDMMDGRVEAIKAALLKHGLGNRVSVMSYSAKFASCFYGPFRDAAQSSPAFGDRRCYQLPPGARGLALRAVARDIQEGADMLMVKPGLPYLDMVREVKDKHPELPLAVYQVSGEFAMLWHGAQAGAFDLRTAVLETMTAFRRAGADIIITYFAPQLLKWLKEE | soluble |
| MHHHHHHSSRQEPPKIHLDCPGRIPDTIVVVAGNKLRLDVPISGDPAPTVIWQKAITQGNKAPARPAPDAPEDTGDSDEWVFDKKLLCETEGRVRVETTKDRSIFTVEGAEKEDEGVYTVTVKNPVGEDQVNLTVKVID | soluble |
| MQKLIMGNWKMNGNSTSIKELCSGISQVQYDTSRVAIAVFPSSVYVKEVISQLPEKVGVGLQNITFYDDGAYTGEISARMLEDIGCDYLLIGHSERRSLFAESDEDVFKKLNKIIDTTITPVVCIGESLDDRQSGKLKQVLATQLSLILENLSVEQLAKVVIAYEPVWAIGTGVVASLEQIQETHQFIRSLLAKVDERLAKNIKIVYGGSLKAENAKDILSLPDVDGGLIGGASLKAAEFNEIINQANKICTE | not soluble |
| MLKLASSLRTGLISRSIRTLAPTVNPAEQQQVQAVLPDKLYSSVEIEYRGHDKAVLKSYTSFLQQVCQHLEIPQGRLEVLPYIRWVQPALRSKFVHKKYKLHYETRTHISKLEILNVTGSTASTFLEYIQRNIPEGVGMRVGFTELQPLPLTIQKN | not soluble |
| MSLLIRELETNDLDNFPEIDDSFIVNARLMLSLSKVNRRIEYTVEDVPSYEKSYLQNDNEELVYNEYINKPNQIIYIALLHNQIIGFIVLKKNWNNYAYIEDITVDKKYRTLGVGKRLIAQAKQWAKEGNMPGIMLETQNNNVAACKFYEKCGFVIGGFDFLVYKGLNMTSDEVAIYWYLHFDS | not soluble |
| MVNIPNFIDKVLSVNDTSNASLTHCIKEADIDGVIEECKDILSAQATMVEVQAPIAVCGDIHGQYTDLLRIFNRCSFPPDQNYLFLGDYVDRGRQQLEVICLLMAYKVRYPNGFFILRGNHECASINRTYGFYDECKRRYSLALYNEFQNLFNSLPLCAMISGRIFCMHGGLSPELVSWTQLAKIIRPFDPPNACLAMDLLWADPENNHTGWGKNSRGVSYIFGANVVKDFTEKMNIDLIARGHQVVQDGYEFFADKRLVTIFSAPKYCGEFDNNAGIMIVDERLIISFEILKPAMREVKIQARAAAKNKSTRSILVSSRGPKSKKG | not soluble |
| MNDGYKQNDIVNHEAYEELEVAEEQIIYCQEEYNDGPGTMVQVQEQTDVPCYVMEGTYFTPENIYAANQDHSVCHFCKEDLTNKRFYNHLFDHHGFTKQQCEMMKQQKRLGRPNPKRKSLHSCENCGMEFITKTGLTSHLKKDNSPCARVDEMAVGGSSVSNIVCPSYGCDKNVPTYLDLAIHVDTEHRDLSRATDSFRIRRVTFQDKAGFMKWKKQMEKSTNSEFFLRTSQKVSFAIRTMLYKCLFSNSRGQSKGRRCEQCPAFIKCCMRNHGQYEVVACFGHLGHEHPTETEIARQMRIEKYREIDALQVRESRMHNQHHMNVRPKQIIVDQYGHPTHPNDEMMILMPVGEEVVEEDAFTSVVVDDADDEIVGPRAQQETPALTRQVYIPTSNHHASSSHY | not soluble |
| HMGCAFLTYCARDSALKAQSALHEQKTLPGMNRPIQVKPADSESRGEDRKLFVGMLGKQQTDEDVRKMFEPFGTIDECTVLRGPDGTSKGCAFVKFQTHAEAQAAINTLHSSRTLPGASSSLVVKFADTEKERGLRRMQQVATQLGMFSPIALQFGAYSAYTQALMQQQAALVAAHSAYLSPMATMAAVQMQHMAAINANGLIATPITPSSGTSTPPAIAATPVSAIPAALGVNGYSPVPTQPTGQPAPDALYPNGVHPYPAQSPAAPVDPLQQAYAGMQHYTAAYPAAYSLVAPAFPQPPALVAQQPPPPPQQQQQQQQQQQQQQQREGPDGCNIFIYHLPQEFTDSEILQMFVPFGHVISAKVFVDRATNQSKCFGFVSFDNPASAQAAIQAMNGFQIGMKRLKVQLKRPKDANRPY | soluble |
| MSTDPEEFDQAETLDQLAYEIILLTRYGVQNTPTNKREAIMDRSALILLTRLDAQGPMTVNELAESFGLNVSTVHRQLKAAIANGLIEVVDDQACPAKLHRPTELGKEKLQQELLARQQDLTRILHDWDEEDIKTHAKLLRKHNESLEEYLDMKWPRP | not soluble |
| MGSDKIHHHHHHMAKLDDATLAQLFTEARSHNGWNPEPLPESVLRELYALTKFGPTAANGSPARFYFVTSAEAKERLAKLSSGSNGPKIMQAPCTVIIGYDLDFPQTLPKLFPHAPGAKDWFNDPVAKEWCALRNSSLQGGYFMIGARALGLDVGPMSGFDNAAVDAEFFAGTNIKSNFIVSIGHGTDEGLFPRNPRLDFDEAAKIL | not soluble |
| MAPPTPHLAVRGSDGTLLLHGPPNCQESSAFQRDDRQGRYMTFSNDGTLFAWCNGSQVTVLKVPSGDLVKSFDLPKTTALEFSPLNKVLATWQQYTKTQDNPQGEANLQLWDLQTGACMKAFYQKKMTGWCPSWADDESISVRNVNNELHFFENNNFETIANKLHLQKVSEFALSPGSQPSKVAVYVPGSKGAPSFVRLYQYPNFGGPTCALANKSFFKADKVNMLWNKKATAVLVTASTEVDKTGASYYGEQTLHYVATNGESAVVQLPKNGPIYDVSWSPNSTEFCVVYGFMPAKATVFNNKCESVFDFGTGPRNAAFYSPQGHILVLAGFGNLRGQMEVWDVKKYKQVSKPQAEDTTHFSWCPDGEHIVTATCSPRLRASNGYKIWHYTGTVLYKHETPSGKELWEVLWQPFPAGVFPERAVKYQALPSELGSTEAKPAQAYRPPALRNKPQTASSKLHEEEPPQNMKPGAAGEKQPSKAALKNQKRREAKKAAKQENKPDEAPPPAADPAPVSHVTSSCGDPETDKKIKNLKKKLKAIDELKEQQAAGKVMQKNQLEKMQKEAQLLKELEDLELGL | soluble |
| VLLHSKEVAYIAGLMAEELGLDAKLARRAGLLHDIGKAISHELGGSHTDIGVELARKYGEPDAVINAIRAHHEEEPVRYPEVALVCAADALSAA | not soluble |
